Reference: article PMC10008561, “Molecular mechanism of biased signaling at the kappa opioid receptor” (Nature Communications, 2023)

Biological target: T1, BRIL-KOR crystallization construct (human kappa-opioid receptor, residues 1-53 replaced by BRIL, C-terminal … (Homo sapiens, I135L | S324C))
T1 chain: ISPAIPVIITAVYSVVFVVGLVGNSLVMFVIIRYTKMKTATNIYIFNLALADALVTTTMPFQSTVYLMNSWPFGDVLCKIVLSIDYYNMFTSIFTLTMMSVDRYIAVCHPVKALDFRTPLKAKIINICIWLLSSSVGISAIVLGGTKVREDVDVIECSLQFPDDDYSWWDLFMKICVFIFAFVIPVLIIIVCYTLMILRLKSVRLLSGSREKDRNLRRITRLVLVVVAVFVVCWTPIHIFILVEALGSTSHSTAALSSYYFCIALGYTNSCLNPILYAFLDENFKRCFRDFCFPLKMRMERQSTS
Assay: cell-based or functional assay

- increase of the binding affinity of nalfurafine in radioligand competition binding on KOR membranes in the presence of Nb39: 40 fold
B1: Nb39 (active-state stabilizing nanobody) (VHH)
VHH: QVQLVESGGGLVRPGGSLRLSCVDSERTSYPMGWFRRAPGKEREFVASITWSGIDPTYADSVADRFTTSRDVANNTLYLQMNSLKHEDTAVYYCAARAPVGQSSSPYDYDYWGQGTQVTVS
